Patent publication US20220073646A1 (Hoffmann-La Roche, published 2022)
Substitutions are numbered along the chain they refer to. In names and notes the source's numbering stands. Where two headings read alike, the source gives them in different places.

Key:
[1] = target: T1, recombinant human OX40 His (human); test: SPR, captured IgG, OX40 His analyte
T1 construct: ectodomain with avi and hexahistidine tag; also called human Ox40 avi His
T1 chain: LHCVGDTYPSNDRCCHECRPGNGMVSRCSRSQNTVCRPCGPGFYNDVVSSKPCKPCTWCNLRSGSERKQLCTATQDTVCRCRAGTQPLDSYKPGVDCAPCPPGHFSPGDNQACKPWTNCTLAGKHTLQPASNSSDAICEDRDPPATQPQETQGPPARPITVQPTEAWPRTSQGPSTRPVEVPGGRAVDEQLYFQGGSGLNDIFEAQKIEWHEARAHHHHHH
Experimental: (§1) All SPR experiments were performed on a Biacore T200 at 25° C. with HBS-EP as running buffer (0.01 M HEPES pH 7.4, 0.15 M NaCl, 3 mM EDTA, 0.005% Surfactant P20, Biacore, Freiburg/Germany).
Setup 2) Anti-human Fc antibody (Biacore, Freiburg/Germany) was directly coupled on a CM5 chip at pH 5.0 using the standard amine coupling kit (Biacore, Freiburg/Germany). The immobilization level was approximately 8000 RU. […] The dissociation was monitored for 120 seconds. Bulk refractive index differences were corrected for by subtracting the response obtained on reference flow cell.

human OX40 on cells [2] = target: T2, human OX40 on cells (human, UniProt P43489 29-277); test: cell-based or functional assay
T2 sequence: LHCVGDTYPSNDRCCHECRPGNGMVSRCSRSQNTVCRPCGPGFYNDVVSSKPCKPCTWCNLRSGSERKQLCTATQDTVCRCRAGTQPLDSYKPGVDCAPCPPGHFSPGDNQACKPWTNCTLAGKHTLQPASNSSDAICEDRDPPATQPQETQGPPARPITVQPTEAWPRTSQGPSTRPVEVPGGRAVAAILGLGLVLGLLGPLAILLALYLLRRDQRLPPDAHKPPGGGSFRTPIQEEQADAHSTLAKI

[3] = target: T3, human fibroblast activation protein (huFAP) on cells (human, UniProt Q12884 1-760); test: flow cytometry, WM266-4 cells
T3 construct: also called NIH/3T3-huFAP clone 39; NIH/3T3-huFAP clone 19

human OX40 on cells [4] = target: T2, human OX40 on cells; test: flow cytometry, activated human CD4 T cells
human OX40 on cells [5] = target: T2, human OX40 on cells; test: flow cytometry, activated human CD4 T cells; remark: listed apart in the source
Experimental: Plates were centrifuged 4 minutes with 400×g and at 4° C. and supernatant was flicked off. Cell were washed once with 200 μL 4° C. cold FACS buffer (DPBS supplied with 2% FBS, 5 mM EDTA pH8 (Amresco, Cat. No. E177) and 7.5 mM Sodium azide (Sigma-Aldrich S2002)). […] Plates were washed four times with 200 μL/well 4° C. FACS buffer to remove unbound construct.
Plates where washed twice with 200 μL/well 4° C.

human OX40 on cells [6] = target: T2, human OX40 on cells; test: cell-based or functional assay; remark: listed apart in the source
[7] = target: recombinant cynomolgus OX40 Fc(kih) (cynomolgus, UniProt P0DOX5 223-449 = IgG part, biotin on C-terminal Avi tag where used biotinylated); test: SPR, captured IgG, cyno OX40 Fc(kih) analyte
Experimental: as §1
Anti-human Fab antibody (Biacore, Freiburg/Germany) was directly coupled on a CM5 chip at pH 5.0 using the standard amine coupling kit (Biacore, Freiburg/Germany). The immobilization level was approximately 9000 RU. […] The dissociation was monitored for 120 seconds. Bulk refractive index differences were corrected for by subtracting the response obtained on reference flow cell.

[8] = target: T4, recombinant human OX40 Fc(kih) (human, UniProt P0DOX5 223-449 = IgG part, biotin on C-terminal Avi tag where used biotinylated); test: SPR, captured IgG, OX40 Fc(kih) analyte
T4 construct: antigen Fc knob chain plus Fc hole chain; also called monomeric human OX40 antigen Fc(kih) fusion; biotinylated human OX40
Experimental: as §1
Setup 1) Anti-human Fab antibody (Biacore, Freiburg/Germany) was directly coupled on a CM5 chip at pH 5.0 using the standard amine coupling kit (Biacore, Freiburg/Germany). The immobilization level was approximately 9000 RU. […] The dissociation was monitored for 120 seconds. Bulk refractive index differences were corrected for by subtracting the response obtained on reference flow cell.

[9] = target: T5, cynomolgus OX40 on activated cynomolgus PBMC (cynomolgus, UniProt P43489 29-214 (human entry)); test: flow cytometry, activated cynomolgus CD4 T cells
T5 construct: whole, on cells
T5 chain: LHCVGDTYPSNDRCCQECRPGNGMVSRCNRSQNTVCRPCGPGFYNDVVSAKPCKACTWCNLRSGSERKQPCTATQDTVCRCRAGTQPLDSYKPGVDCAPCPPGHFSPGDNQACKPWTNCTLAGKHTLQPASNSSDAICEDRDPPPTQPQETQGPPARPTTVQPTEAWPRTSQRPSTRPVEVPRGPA
Experimental: Then, plates were washed four times with 200 μL/well 4° C. FACS buffer. […] Plates where washed twice with 200 μL/well 4° C.

human OX40 on cells [10] = target: T2, human OX40 on cells; test: flow cytometry, activated human CD4 T cells; remark: listed apart in the source
[11] = target: T6, huOX40-SNAP fusion on Hek293 EBNA cells (human, UniProt P43489 29-277, labeled with the FRET donor Terbium); test: cell FRET competition against d2-labeled (49B4) IgG
T6 construct: not shown: SNAP tag
T6 sequence: T2 sequence

[12] = target: T3, human fibroblast activation protein …; test: flow cytometry, WM266-4
Experimental: In some assays WM266-4 cells were pre-labeled with PKH-26 Red Fluorescence Cell linker Kit (Sigma, Cat.-No. PKH26GL) as described in Example 2.3.2 to allow separation of these tumor cells from other cells present (e.g. human PBMC).
Plates were centrifuged 4 minutes, 400×g at 4° C. and supernatants were flicked off. Cells were washed once with 200 μL DPBS and pellets were resuspended by a short and gentle vortex. All samples were resuspended in 50 μL/well of 4° C. cold FACS buffer containing the bispecific antigen binding molecules (primary antibody) at the indicated range of concentrations (titrated) and incubated for 120 minutes at 4° C. Afterwards the cells were washed four times with 200 μL 4° C.

[13] = target: T3, human fibroblast activation protein …; test: flow cytometry, WM266-4; remark: listed apart in the source
[14] = target: T7, murine FAP (His-tagged ectodomain) (mouse, UniProt P97321 27-761); test: SPR, FAP captured via anti-His, 1:1 fit, apparent KD (bivalent)
T7 construct: also called mu FAP
Experimental: (§2) The capacity of the bispecific constructs to bind human, murine and cynomolgus FAP was assessed by surface plasmon resonance (SPR). All SPR experiments were performed on a Biacore T200 (Biacore) at 25° C. with HBS-EP as running buffer (0.01 M HEPES pH 7.4, 0.15 M NaCl, 3 mM EDTA, 0.005% Surfactant P20, (Biacore).
(§3) Immobilization levels for the anti-His antibody of up to 18000 resonance units (RU) were used.
(§4) Following the capture step, the bispecific constructs as well as control molecules were immediately passed over the chip surface at a concentration ranging from 0.006-100 nM with a flow rate of 30 μL/minute for 280 s and a dissociation phase of 180 s. Bulk refractive index differences were corrected for by subtracting the response obtained in a reference flow cell, where no FAP was immobilized. Affinity was determined using the Langmuir 1:1 curve fitting. For bivalent binding the same 1:1 fitting was used leading to an apparent KD value.

[15] = target: T8, human FAP (His-tagged ectodomain) (human, UniProt Q12884 27-760); test: SPR, FAP captured via anti-His, 1:1 fit
T8 construct: SPR texts say 'human FAP' or 'His-tagged ... dimeric FAP'; also called hu FAP; human FAP (analyte 2)
Experimental: as §2, §3, §4

[16] = target: T9, cynomolgus FAP (His-tagged ectodomain) (cynomolgus, UniProt Q12884 27-760 (human entry)); test: SPR, FAP captured via anti-His, 1:1 fit
T9 construct: also called cynoFAP
Experimental: as §2, §3, §4

[17] = target: T7, murine FAP (His-tagged ectodomain); test: SPR, FAP captured via anti-His, 1:1 fit
Experimental: as §2, §3, §4

[18] = target: T8, human FAP (His-tagged ectodomain); test: SPR, FAP captured via anti-His, 1:1 fit, apparent KD (bivalent)
Experimental: as §2, §3, §4

[19] = target: T10, mouse 4-1BB on activated mouse splenocytes (mouse, UniProt P20334 24-256); test: flow cytometry, activated murine CD4 T cells
T10 sequence (P20334 24-256 limits assumed): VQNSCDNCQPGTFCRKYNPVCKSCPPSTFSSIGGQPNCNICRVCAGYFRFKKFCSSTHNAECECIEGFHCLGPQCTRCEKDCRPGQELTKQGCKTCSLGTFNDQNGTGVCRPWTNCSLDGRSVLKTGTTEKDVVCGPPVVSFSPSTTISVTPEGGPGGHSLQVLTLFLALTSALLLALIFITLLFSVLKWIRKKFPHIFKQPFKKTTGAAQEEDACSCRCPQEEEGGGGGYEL
Experimental: (§5) Cells were incubated for 30 min at 4° C., washed twice with 200 μL/well FACS-buffer and resuspended for fixation with 50 μL/well DPBS containing 1% (v/v) formaldehyde. The next day cells were resuspended in 200 μL/well FACS buffer and acquired using the 2-laser Cantoll (BD Bioscience with DIVA software) or 5-laser Fortessa (BD Bioscience with DIVA software). Gates were set on CD8⁺ and CD4⁺ T cells and the median fluorescence intensity (MFI) of the secondary detection antibody was used to analyze binding of primary antibodies. Using Graph Pad Prism (Graph Pad Software Inc.) data was baselined by subtracting the blank values (no primary antibody added) and the EC₅₀ values were calculated using non-linear regression curve fit (robust fit).

[20] = target: T10, mouse 4-1BB on activated mouse …; test: flow cytometry, activated murine CD8 T cells
Experimental: as §5

[21] = target: T11, recombinant cynomolgus GITR Fc(kih) (cynomolgus, UniProt P0DOX5 223-449 = IgG part, biotin on C-terminal Avi tag where used biotinylated); test: SPR, captured IgG, GITR Fc(kih) analyte
T11 construct: also called cy GITR-Fc
Experimental: (§6) In the same experiment, the affinities of the interaction between the GITR antibody (human IgG1 P329GLALA) to recombinant GITR (human and cyno) were determined. Anti-human Fab antibody (Biacore, Freiburg/Germany) was directly coupled on a CM5 chip at pH 5.0 using the standard amine coupling kit (Biacore, Freiburg/Germany). The immobilization level was approximately 7000 RU. The GITR antibody was captured for 90 seconds at 5 nM. […] The dissociation was monitored for 180 seconds. Bulk refractive index differences were corrected for by subtracting the response obtained on reference flow cell.

[22] = target: T12, recombinant human GITR Fc(kih) (human, UniProt P0DOX5 223-449 = IgG part, biotin on C-terminal Avi tag where used biotinylated); test: SPR, captured IgG, GITR Fc(kih) analyte
T12 construct: also called hu GITR-Fc; human monomeric GITR-Fc fusion
Experimental: as §6

[23] = target: T13, recombinant murine GITR Fc(kih) (murine, UniProt P0DOX5 223-449 = IgG part, biotin on C-terminal Avi tag); test: SPR Biacore T200
T13 construct: also called mu GITR-Fc
Experimental: All SPR experiments were performed on a Biacore T200 at 25° C. with HBS-EP as running buffer (0.01 M HEPES pH 7.4, 0.15 M NaCl, 3 mM EDTA, 0.005% Surfactant P20, Biacore, Freiburg/Germany). In the same experiment, the species selectivity and the avidity of the interaction between the GITR binder (human IgG1 P329GLALA), and recombinant GITR (human, cyno and murine) was determined. […] Immobilization levels up to 100 resonance units (RU) were used.
Anti-GITR human IgG1 P329GLALA antibody was passed at a concentration range from 0.2 to 200 nM (4-fold dilution) with a flow of 30 μL/minute through the flow cells over 120 seconds. Complex dissociation was monitored for 180 seconds. Bulk refractive index differences were corrected for by subtracting the response obtained in a reference flow cell, where no protein was immobilized.

B1: 8H9 P329GLALA IgG1 (antibody, V domains shown)
VH: QVQLVQSGAEVKKPGSSVKVSCKASGGTFSSYAISWVRQAPGQGLEWMGGIIPIFGTANYAQKFQGRVTITADKSTSTAYMELSSLRSEDTAVYYCAREYGWMDYWGQGTTVTVSS
VL: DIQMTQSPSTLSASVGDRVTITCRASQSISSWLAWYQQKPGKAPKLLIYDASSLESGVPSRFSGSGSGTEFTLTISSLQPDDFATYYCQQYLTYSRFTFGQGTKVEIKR
notes: anti-OX40; also called clone 8H9 hu IgG1
Kd [1]: 31 nM | koff [1]: 0.002 s⁻¹ | kon [1]: 65000 M⁻¹ s⁻¹ | EC50 of NFκB activation in HeLa_hOx40_NFκB_luc1 reporter cells with secondary anti-human IgG Fcγ antibody (human OX40 on cells [2]): 0.66 nM | binding result [3]: no binding | EC50 (human OX40 on cells [4]): 0.59 nM | EC50 (human OX40 on cells [5]): 0.59 nM | EC50 of rescuing suboptimal TCR stimulation with plate-immobilized anti-OX40 binder (preactivated human CD4 T cells) (human OX40 on cells [6]): 0.003 nM | Kd [7]: 670 nM | koff [7]: 0.096 s⁻¹ | kon [7]: 140000 M⁻¹ s⁻¹ | Kd [8]: 28 nM | koff [8]: 0.0045 s⁻¹ | kon [8]: 160000 M⁻¹ s⁻¹

B2: 49B4 P329GLALA IgG1 (antibody, V domains shown)
VH: QVQLVQSGAEVKKPGSSVKVSCKASGGTFSSYAISWVRQAPGQGLEWMGGIIPIFGTANYAQKFQGRVTITADKSTSTAYMELSSLRSEDTAVYYCAREYYRGPYDYWGQGTTVTVSS
VL: DIQMTQSPSTLSASVGDRVTITCRASQSISSWLAWYQQKPGKAPKLLIYDASSLESGVPSRFSGSGSGTEFTLTISSLQPDDFATYYCQQYSSQPYTFGQGTKVEIKR
notes: anti-OX40; sometimes misprinted 49B9; also called 49B4 IgG1; hu IgG1 (49B4)
EC50 [9]: 0.05 nM | Kd [1]: 460 nM | koff [1]: 0.67 s⁻¹ | kon [1]: 1.4e+06 M⁻¹ s⁻¹ | EC50 of NFκB activation in HeLa_hOx40_NFκB_luc1 reporter cells with secondary anti-human IgG Fcγ antibody (human OX40 on cells [2]): 2.42 nM | binding result [3]: no binding | EC50 (human OX40 on cells [10]): 907 nM | EC50 (human OX40 on cells [5]): 4.19 nM | EC50 of rescuing suboptimal TCR stimulation with plate-immobilized anti-OX40 binder (preactivated human CD4 T cells) (human OX40 on cells [6]): 0.591 nM | Kd [7]: 350 nM | koff [7]: 0.038 s⁻¹ | kon [7]: 110000 M⁻¹ s⁻¹ | Kd [8]: 510 nM | koff [8]: 0.13 s⁻¹ | kon [8]: 250000 M⁻¹ s⁻¹ | EC50 [11]: 12.7 nM

B3: 8H9/FAP P329GLALA IgG1 2+2 (bispecific antibody)
heavy: not shown
light 1: not shown
light 2: EIVLTQSPGTLSLSPGERATLSCRASQSVSRSYLAWYQQKPGQAPRLLIIGASTRATGIPDRFSGSGSGTDFTLTISRLEPEDFAVYYCQQGQVIPPTFGQGTKVEIKSSASTKGPSVFPLAPSSKSTSGGTAALGCLVKDYFPEPVTVSWNSGALTSGVHTFPAVLQSSGLYSLSSVVTVPSSSLGTQTYICNVNHKPSNTKVDKKVEPKSCD
notes: also called bispecific bivalent 2+2 construct 8H9; 8H9 FAP 2+2
EC50 (human OX40 on cells [4]): 0.93 nM | EC50 [12]: 2.88 nM

B4: OX40(49B4)/FAP(28H1) P329GLALA IgG1 4+2 (bispecific antibody)
heavy: not shown
light 1: DIQMTQSPSTLSASVGDRVTITCRASQSISSWLAWYQQKPGKAPKLLIYDASSLESGVPSRFSGSGSGTEFTLTISSLQPDDFATYYCQQYSSQPYTFGQGTKVEIKRTVAAPSVFIFPPSDRKLKSGTASVVCLLNNFYPREAKVQWKVDNALQSGNSQESVTEQDSKDSTYSLSSTLTLSKADYEKHKVYACEVTHQGLSSPVTKSFNRGEC
light 2: EVQLLESGGGLVQPGGSLRLSCAASGFTFSSHAMSWVRQAPGKGLEWVSAIWASGEQYYADSVKGRFTISRDNSKNTLYLQMNSLRAEDTAVYYCAKGWLGNFDYWGQGTLVTVSSASVAAPSVFIFPPSDEQLKSGTASVVCLLNNFYPREAKVQWKVDNALQSGNSQESVTEQDSKDSTYSLSSTLTLSKADYEKHKVYACEVTHQGLSSPVTKSFNRGEC
notes: also called 4+2 (49B4/28H1)
EC50 [13]: 5.51 nM | Kd [14]: 4.41 pM

B5: OX40(49B4)/FAP(4B9) P329GLALA IgG1 1+1 (bispecific antibody, V domains shown)
VH 1: B2 VH
VL 1: DIQMTQSPSTLSASVGDRVTITCRASQSISSWLAWYQQKPGKAPKLLIYDASSLESGVPSRFSGSGSGTEFTLTISSLQPDDFATYYCQQYSSQPYTFGQGTKVEIK
VH 2: EVQLLESGGGLVQPGGSLRLSCAASGFTFSSYAMSWVRQAPGKGLEWVSAIIGSGASTYYADSVKGRFTISRDNSKNTLYLQMNSLRAEDTAVYYCAKGWFGGFNYWGQGTLVTVSS
VL 2: EIVLTQSPGTLSLSPGERATLSCRASQSVTSSYLAWYQQKPGQAPRLLINVGSRRATGIPDRFSGSGSGTDFTLTISRLEPEDFAVYYCQQGIMLPPTFGQGTKVEIK
notes: only variable domains of 49B4 and 4B9; human IgG1 P329G LALA
Kd [15]: 0.752 nM | Kd [16]: 0.532 nM | Kd [17]: 4.79 nM

B6: 28H1 IgG (antibody, V domains shown)
VH: EVQLLESGGGLVQPGGSLRLSCAASGFTFSSHAMSWVRQAPGKGLEWVSAIWASGEQYYADSVKGRFTISRDNSKNTLYLQMNSLRAEDTAVYYCAKGWLGNFDYWGQGTLVTVSS
VL: B5 VL 2 with T30S, S31R, N50I, V51G, G52A, R54T, I93Q, M94V, L95I
notes: anti-FAP control IgG
Kd [18]: 0.933 nM | Kd [14]: 0.49 pM

B7: 20G2 mu IgG1 κ DAPG (antibody, V domains shown)
VH: QVQLVQSGAEVKKPGSSVKVSCKASGGTFSSYAISWVRQAPGQGLEWMGGIIPIFGTANYAQKFQGRVTITADKSTSTAYMELSSLRSEDTAVYYCARSYYWESYPFDYWGQGTTVTVSS
VL: DIQMTQSPSTLSASVGDRVTITCRASQSISSWLAWYQQKPGKAPKLLIYDASSLESGVPSRFSGSGSGTEFTLTISSLQPDDFATYYCQQQHSYYTFGQGTKVEIK
notes: mouse IgG1 kappa with DAPG mutations; also called 20G2 mouse IgG1 DAPG
EC50 [19]: 11.2 nM | EC50 [20]: 17.9 nM

B8: 20G2 mu IgG1 κ wt (antibody, V domains shown)
VH: B7 VH
VL: B7 VL
notes: mouse IgG1 kappa wild type; also called 20G2 mouse IgG1 wildtype
EC50 [19]: 9.92 nM | EC50 [20]: 18.5 nM

B9: 8A06 P329GLALA IgG1 (antibody, V domains shown)
VH: B1 VH with E99G, G101Y, W102A, M103I
VL: SSELTQDPAVSVALGQTVRITCQGDSLRSYYASWYQQKPGQAPVLVIYGKNNRPSGIPDRFSGSSSGNTASLTITGAQAEDEADYYCNSPQTSGSAVFGGGTKLTVLG
notes: also called anti-GITR 8A06 IgG
Kd [21]: 1200 nM | Kd [22]: 29 nM | binding result [23]: no binding (tested: 0.2 to 200 nM IgG)

B10: 6C8 P329GLALA IgG1 (antibody, V domains shown)
VH: QVTLRESGPALVKPTQTLTLTCTFSGFSLSTSGMGVGWIRQPPGKALEWLAHIWWDDDKYYQPSLKSRLTISKDTSKNQVVLTMTNMDPVDTATYYCARTRRYFPFAYWGQGTLVTVSS
VL: EIVMTQSPATLSVSPGERATLSCKASQNVGTNVAWYQQKPGQAPRLLIYSASYRYSGIPARFSGSGSGTEFTLTISSLQSEDFAVYYCQQYNTDPLTFGGGTKVEIKR
notes: prepared according to WO 2006/105021; also called benchmark antibody 6C8
Kd [21]: 190 nM | koff [21]: 0.014 s⁻¹ | kon [21]: 73000 M⁻¹ s⁻¹ | Kd [22]: 30 nM | koff [22]: 0.0011 s⁻¹ | kon [22]: 38000 M⁻¹ s⁻¹ | binding result [23]: no binding (tested: 0.2 to 200 nM IgG)
